# Reference: publication doi:10.1101/2021.02.08.430206 (bioRxiv, 2021)
# T1: N16,27,33Q-ACKR1 mutant (non-glycosylated) (human, UniProt Q16570 1-336, N^16,27,33Q | N^16,27,33Q | N^16,27,33Q)
# T1 sequence: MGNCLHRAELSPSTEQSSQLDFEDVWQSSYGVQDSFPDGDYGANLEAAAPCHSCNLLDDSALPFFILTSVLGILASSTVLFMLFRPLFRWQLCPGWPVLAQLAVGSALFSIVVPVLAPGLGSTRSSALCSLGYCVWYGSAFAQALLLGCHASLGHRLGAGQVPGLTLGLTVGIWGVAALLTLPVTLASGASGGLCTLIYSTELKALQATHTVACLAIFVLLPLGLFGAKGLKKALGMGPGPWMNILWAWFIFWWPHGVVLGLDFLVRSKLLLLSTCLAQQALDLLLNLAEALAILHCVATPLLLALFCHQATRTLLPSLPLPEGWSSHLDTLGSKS
# T2: gamma-hemolysin component HlgA (S component leukotoxin) of Staphylococcus aureus (Staphylococcus aureus), P0A074
# T2 chain: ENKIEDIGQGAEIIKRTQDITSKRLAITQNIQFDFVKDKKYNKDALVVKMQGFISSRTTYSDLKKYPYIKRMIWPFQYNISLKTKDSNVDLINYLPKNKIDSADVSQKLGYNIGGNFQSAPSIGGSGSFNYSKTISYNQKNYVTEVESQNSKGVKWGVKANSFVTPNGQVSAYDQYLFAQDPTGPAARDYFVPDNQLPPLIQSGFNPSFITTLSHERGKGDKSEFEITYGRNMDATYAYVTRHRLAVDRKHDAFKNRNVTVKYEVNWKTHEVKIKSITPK
# T3: ACKR1 treated with PNGase F (deglycosylated ACKR1) (human, UniProt Q16570 1-336, N-glycans removed by PNGase F)
# T3 sequence: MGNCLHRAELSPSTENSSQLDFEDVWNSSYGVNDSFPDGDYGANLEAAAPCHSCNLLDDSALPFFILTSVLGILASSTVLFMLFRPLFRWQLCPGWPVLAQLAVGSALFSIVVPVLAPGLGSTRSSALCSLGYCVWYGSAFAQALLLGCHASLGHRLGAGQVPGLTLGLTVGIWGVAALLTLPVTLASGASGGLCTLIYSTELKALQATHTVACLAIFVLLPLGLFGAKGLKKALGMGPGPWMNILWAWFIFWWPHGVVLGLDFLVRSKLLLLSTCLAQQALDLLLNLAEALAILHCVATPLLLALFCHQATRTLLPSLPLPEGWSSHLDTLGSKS
# B1: gamma-hemolysin component HlgB (F component leukotoxin) of Staphylococcus aureus (natural protein)
# chain: NAEGKITPVSVKKVDDKVTLYKTTATADSDKFKISQILTFNFIKDKSYDKDTLVLKATGNINSGFVKPNPNDYDFSKLYWGAKYNVSISSQSNDSVNVVDYAPKNQNEEFQVQNTLGYTFGGDISISNGLSGGLNGNTAFSETINYKQESYRTTLSRNTNYKNVGWGVEAHKIMNNGWGPYGRDSFHPTYGNELFLAGRQSSAYAGQNFIAQHQMPLLSRSNFNPEFLSVLSHRQDGAKKSKITVTYQREMDLYQIRWNGFYWAGANYKNFKTRTFKSTYEIDWENHKVKLLDTKETENNK
# Experiments:
# [1] = target: SNAP-tag-fused ACKR1 receptor (human) (UniProt Q16570); assay: FRET or BRET
# [2] = target: the molecule itself; assay: native MS
# [3] = target: T1, N16,27,33Q-ACKR1 mutant …; assay: HDX-MS
# [4] = target: T2, gamma-hemolysin component HlgA (S …); assay: native MS; conditions: remark: other sources report otherwise
# [5] = target: B1; assay: native MS
# [6] = target: T3, ACKR1 treated with PNGase F …; assay: native MS
molecule,measurement,setting,value
"HlgAB, equimolar mixture of HlgA and HlgB (from UniProt P0A074;P0A077) (complex)",IC50,[1],6.2 nM
"atypical chemokine receptor 1 (ACKR1), purified, glycosylated wild type (receptor, N-glycosylated at N16, N27 and N33) MGNCLHRAELSPSTENSSQLDFEDVWNSSYGVNDSFPDGDYGANLEAAAPCHSCNLLDDSALPFFILTSVLGILASSTVLFMLFRPLFRWQLCPGWPVLAQLAVGSALFSIVVPVLAPGLGSTRSSALCSLGYCVWYGSAFAQALLLGCHASLGHRLGAGQVPGLTLGLTVGIWGVAALLTLPVTLASGASGGLCTLIYSTELKALQATHTVACLAIFVLLPLGLFGAKGLKKALGMGPGPWMNILWAWFIFWWPHGVVLGLDFLVRSKLLLLSTCLAQQALDLLLNLAEALAILHCVATPLLLALFCHQATRTLLPSLPLPEGWSSHLDTLGSKS",stoichiometry N,[2],2
gamma-hemolysin component HlgA (S component leukotoxin) of Staphylococcus aureus (natural protein) ENKIEDIGQGAEIIKRTQDITSKRLAITQNIQFDFVKDKKYNKDALVVKMQGFISSRTTYSDLKKYPYIKRMIWPFQYNISLKTKDSNVDLINYLPKNKIDSADVSQKLGYNIGGNFQSAPSIGGSGSFNYSKTISYNQKNYVTEVESQNSKGVKWGVKANSFVTPNGQVSAYDQYLFAQDPTGPAARDYFVPDNQLPPLIQSGFNPSFITTLSHERGKGDKSEFEITYGRNMDATYAYVTRHRLAVDRKHDAFKNRNVTVKYEVNWKTHEVKIKSITPK,binding result,[3],binds
same,relative quantification in the equimolar mixture (HlgA monomer 100%),[4],1.5%
same,stoichiometry N,[4],2
same,binding result,[5],binds
same,stoichiometry N,[6],1
B1,binding result,[3],binds
same,fold dimer-to-monomer ratio against HlgA,[2],2 fold
same,stoichiometry N,[2],2
